Consider 1 molecule from article PMC8794802.

In data set [1] the target is T1, Pus1 (Saccharomyces cerevisiae, UniProt Q12211 1-544).
T1 sequence: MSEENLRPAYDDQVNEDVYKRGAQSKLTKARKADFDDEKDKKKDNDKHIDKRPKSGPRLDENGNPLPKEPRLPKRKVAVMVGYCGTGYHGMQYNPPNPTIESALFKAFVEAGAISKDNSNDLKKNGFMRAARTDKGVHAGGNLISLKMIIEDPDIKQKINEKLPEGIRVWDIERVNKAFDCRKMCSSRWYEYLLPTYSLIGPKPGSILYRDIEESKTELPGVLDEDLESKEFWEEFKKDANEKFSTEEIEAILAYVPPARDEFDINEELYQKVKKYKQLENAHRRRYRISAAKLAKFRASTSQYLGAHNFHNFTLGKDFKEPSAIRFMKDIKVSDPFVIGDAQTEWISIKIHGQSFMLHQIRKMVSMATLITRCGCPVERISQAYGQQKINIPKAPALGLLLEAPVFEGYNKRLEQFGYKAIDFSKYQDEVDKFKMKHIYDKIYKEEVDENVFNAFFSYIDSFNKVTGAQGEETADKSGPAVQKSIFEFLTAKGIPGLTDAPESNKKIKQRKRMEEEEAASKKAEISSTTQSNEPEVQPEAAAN
The experiment in a line: EMSA.

For data set [2], the target named is T2, Pus7 D256A (Saccharomyces cerevisiae, UniProt Q08647 1-676, D256A).
T2 sequence: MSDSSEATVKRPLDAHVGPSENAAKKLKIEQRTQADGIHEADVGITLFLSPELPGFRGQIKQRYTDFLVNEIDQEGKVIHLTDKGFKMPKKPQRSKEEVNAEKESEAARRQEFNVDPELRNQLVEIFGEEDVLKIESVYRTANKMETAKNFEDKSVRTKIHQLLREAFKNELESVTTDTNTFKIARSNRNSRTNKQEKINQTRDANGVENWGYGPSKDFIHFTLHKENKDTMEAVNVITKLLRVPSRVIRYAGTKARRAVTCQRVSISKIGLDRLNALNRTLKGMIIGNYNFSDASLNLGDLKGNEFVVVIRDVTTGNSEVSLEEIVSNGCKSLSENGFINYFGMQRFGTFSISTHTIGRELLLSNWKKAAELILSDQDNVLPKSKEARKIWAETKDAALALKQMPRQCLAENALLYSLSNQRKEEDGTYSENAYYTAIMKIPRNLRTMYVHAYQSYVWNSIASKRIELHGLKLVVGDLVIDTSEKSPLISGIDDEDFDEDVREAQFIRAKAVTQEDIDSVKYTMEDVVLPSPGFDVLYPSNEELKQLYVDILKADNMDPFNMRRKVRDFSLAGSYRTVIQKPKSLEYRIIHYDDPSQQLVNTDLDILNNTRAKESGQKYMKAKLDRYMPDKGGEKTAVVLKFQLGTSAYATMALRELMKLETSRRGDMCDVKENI
Description: stopped-flow fluorescence.

Data set [3] has as its target T3, Pus7 D256A/H161A (Saccharomyces cerevisiae, UniProt Q08647 1-676, H161A;D256A).
T3 sequence: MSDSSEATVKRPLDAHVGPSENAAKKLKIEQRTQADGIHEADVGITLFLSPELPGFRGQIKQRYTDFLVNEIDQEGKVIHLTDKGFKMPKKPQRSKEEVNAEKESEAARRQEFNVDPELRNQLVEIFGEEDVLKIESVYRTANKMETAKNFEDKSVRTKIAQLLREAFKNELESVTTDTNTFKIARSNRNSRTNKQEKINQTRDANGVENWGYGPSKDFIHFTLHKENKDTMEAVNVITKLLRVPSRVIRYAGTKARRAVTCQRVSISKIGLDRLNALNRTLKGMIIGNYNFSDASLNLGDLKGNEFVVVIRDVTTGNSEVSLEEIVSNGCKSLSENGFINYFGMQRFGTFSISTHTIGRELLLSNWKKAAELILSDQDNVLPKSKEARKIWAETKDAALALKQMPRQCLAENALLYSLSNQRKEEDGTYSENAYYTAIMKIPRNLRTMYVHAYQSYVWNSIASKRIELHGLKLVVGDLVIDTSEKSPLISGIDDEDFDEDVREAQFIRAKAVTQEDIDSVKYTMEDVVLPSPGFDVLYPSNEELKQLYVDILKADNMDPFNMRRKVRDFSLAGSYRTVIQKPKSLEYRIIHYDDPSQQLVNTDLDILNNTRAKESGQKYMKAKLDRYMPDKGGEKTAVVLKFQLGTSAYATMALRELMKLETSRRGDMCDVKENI
Description: EMSA.

Data set [4] has as its target T2, Pus7 D256A. The experiment in a line: EMSA.

B1: CDC8 (cdc8-FL, 61 nt) (ssRNA)
RNA: GUCAAUCACGAUUGUAGACGUUACUAAUAAGGGCAUUCAGGAAGUUGAAGCGCUUAUUUGG
B1: in data set [1], the binding result is recorded as “binds”. The Kd is ~85 nM in data set [2], 170 ± 40 nM in data set [3] and 60 ± 15 nM in data set [4].
